Tests used:
[1] = substrate: p-NP-C2
[2] = substrate: p-NP-C4
[3] = pH 7.2, part of the chain shown

B1: unnamed (protein)
chain: MSKISEAVKRARAAFSSGRTRPLQFRIQQLEALQRLIQEQEQELVGALAADLHKNEWNAYYEEVVYVLEEIEYMIQKLPEWAADEPVEKTPQTQQDELYIHSEPLGVVLVIGTWNYPFNLTIQPMVGAIAAGNSVVLKPSELSENMASLLATIIPQYLDKDLYPVINGGVPETTELLKERFDHILYTGSTGVGKIIMTAAAKHLTPVTLELGGKSPCYVDKNCDLDVACRRIAWGKFMNSGQTCVAPDYILCDPSIQNQIVEKLKKSLKEFYGEDAKKSRDYGRIISARHFQRVMGLIEGQKVAYGGTGDAATRYIAPTILTDVDPQSPVMQEEIFGPVLPIVCVRSLEEAIQFINQREKPLALYMFSSNDKVIKKMIAETSSGGVAANDVIVHITLHSLPFGGVGNSGMGSYHGKKSFETFSHRRSCLVRPLMNDEGLKVRYPPSPAKMTQH
Km ([1]; pH 7.4, 25 °C): 200 µM
kcat ([1]; pH 7.4, 25 °C): 1.43 s⁻¹
kcat/Km ([1]; pH 7.4, 25 °C): 7170 M⁻¹ s⁻¹

B2: unnamed (protein)
chain: MRLHRLRARLSAVACGLLLLLVRGQGQDSASPIRTTHTGQVLGSLVHVKGANAGVQTFLGIPFAKPPLGPLRFAPPEPPESWSGVRDGTTHPAMCLQDLTAVESEFLSQFNMTFPSDSMSEDCLYLSIYTPAHSHEGSNLPVMVWIHGGALVFGMASLYDGSMLAALENVVVVIIQYRLGVLGFFSTGDKHATGNWGYLDQVAALRWVQQNIAHFGGNPDRVTIFGESAGGTSVSSLVVSPISQGLFHGAIMESGVALLPGLIASSADVISTVVANLSACDQVDSEALVGCLRGKSKEEILAINKPFKMIPGVVDGVFLPRHPQELLASADFQPVPSIVGVNNNEFGWLIPKVMRIYDTQKEMDREASQAALQKMLTLLMLPPTFGDLLREEYIGDNGDPQTLQAQFQEMMADSMFVIPALQVAHFQCSRAPVYFYEFQHQPSWLKNIRPPHMKADHGDELPFVFRSFFGGNYIKFTEEEEQLSRKMMKYWANFARNGNPNGEGLPHWPLFDQEEQYLQLNLQPAVGRALKAHRLQFWKKALPQKIQELEEPEERHTEL
Km ([2]; pH 8, 37 °C): 31 µM
kcat ([2]; pH 8, 37 °C): 70 s⁻¹
kcat/Km ([2]; pH 8, 37 °C): 2.26e+06 M⁻¹ s⁻¹

B3: unnamed (protein)
chain: MRALLLSGCLALVLLTQQAAAQTLLVVGDSISAALGLDTSQGWVALLQKRLADEGYDYRVVNASISGDTSAGGLARLPALLAEEKPALVVIELGGNDGLRGMAPAQLQQNLASMAQKARAEGAKVLLLGIQLPPNYGPRYIEAFSRVYGAVAAQEKTALVPFFLEGVGGVQGMMQADGIHPALAAQPRLLENVWPTLKPLL
Km [2, 3]: 1000 µM
kcat [2, 3]: 12 s⁻¹
kcat/Km [2, 3]: 12000 M⁻¹ s⁻¹

B4: unnamed (protein)
chain: MWLLPLVLTSLASSATWAGQPASPPVVDTAQGRVLGKYVSLEGLAQPVAVFLGVPFAKPPLGSLRFAPPQPAEPWSFVKNTTSYPPMCCQDPVVEQMTSDLFTNGKERLTLEFSEDCLYLNIYTPADLTKRGRLPVMVWIHGGGLVLGGAPMYDGVVLAAHENVVVVAIQYRLGIWGFFSTGDEHSRGNWGHLDQVAALHWVQENIANFGGDPGSVTIFGESAGGESVSVLVLSPLAKNLFHRAISESGVALTVALVRKDMKAAAKQIAVLAGCKTTTSAVFVHCLRQKSEDELLDLTLKMKFLTLDFHGDQRESHPFLPTVVDGVLLPKMPEEILAEKDFNTVPYIVGINKQEFGWLLPTMMGFPLSEGKLDQKTATSLLWKSYPIANIPEELTPVATDKYLGGTDDPVKKKDLFLDLMGDVVFGVPSVTVARQHRDAGAPTYMYEFQYRPSFSSDKKPKTVIGDHGDEIFSVFGFPLLKGDAPEEEVSLSKTVMKFWANFARSGNPNGEGLPHWPMYDQEEGYLQIGVNTQAAKRLKGEEVAFWNDLLSKEAAKKPPKIKHAEL
Km ([1]; pH 7.4, 37 °C): 520 µM
kcat ([1]; pH 7.4, 37 °C): 20.2 s⁻¹
kcat/Km ([1]; pH 7.4, 37 °C): 38800 M⁻¹ s⁻¹
Km ([2]; pH 7.4, 37 °C): 140 µM
kcat ([2]; pH 7.4, 37 °C): 27.4 s⁻¹
kcat/Km ([2]; pH 7.4, 37 °C): 196000 M⁻¹ s⁻¹

B5: unnamed (protein)
chain: MIRMALKPLVAACLLASLSTAPQAAPSPYSTLVVFGDSLSDAGQFPDPAGPAGSTSRFTNRVGPTYQNGSGEIFGPTAPMLLGNQLGIAPGDLAASTSPVNAQQGIADGNNWAVGGYRTDQIYDSITAANGSLIERDNTLLRSRDGYLVDRARQGLGADPNALYYITGGGNDFLQGRILNDVQAQQAAGRLVDSVQALQQAGARYIVVWLLPDLGLTPATFGGPLQPFASQLSGTFNAELTAQLSQAGANVIPLNIPLLLKEGMANPASFGLAADQNLIGTCFSGNGCTMNPTYGINGSTPDPSKLLFNDSVHPTITGQRLIADYTYSLLSAPWELTLLPEMAHGTLRAYQDELRSQWQADWENWQNVGQWRGFVGGGGQRLDFDSQDSAASGDGNGYNLTLGGSYRIDEAWRAGVAAGFYRQKLEAGAKDSDYRMNSYMASAFVQYQENRWWADAALTGGYLDYDDLKRKFALGGGERSEKGDTNGHLWAFSARLGYDIAQQADSPWHLSPFVSADYARVEVDGYSEKGASATALDYDDQKRSSKRLGAGLQGKYAFGSDTQLFAEYAHEREYEDDTQDLTMSLNSLPGNRFTLEGYTPQDHLNRVSLGFSQKLAPELSLRGGYNWRKGEDDTQQSVSLALSLDF
Km ([2]; pH 7.2): 700 µM
kcat ([2]; pH 7.2): 247 s⁻¹
kcat/Km ([2]; pH 7.2): 353000 M⁻¹ s⁻¹

B6: unnamed (protein)
chain: MWLRAFILATLSASAAWGHPSSPPVVDTVHGKVLGKFVSLEGFAQPVAIFLGIPFAKPPLGPLRFTPPQPAEPWSFVKNATSYPPMCTQDPKAGQLLSELFTNRKENIPLKLSEDCLYLNIYTPADLTKKNRLPVMVWIHGGGLMVGAASTYDGLALAAHENVVVVTIQYRLGIWGFFSTGDEHSRGNWGHLDQVAALRWVQDNIASFGGNPGSVTIFGESAGGESVSVLVLSPLAKNLFHRAISESGVALTSVLVKKGDVKPLAEQIAITAGCKTTTSAVMVHCLRQKTEEELLETTLKMKFLSLDLQGDPRESQPLLGTVIDGMLLLKTPEELQAERNFHTVPYMVGINKQEFGWLIPMQLMSYPLSEGQLDQKTAMSLLWKSYPLVCIAKELIPEATEKYLGGTDDTVKKKDLFLDLIADVMFGVPSVIVARNHRDAGAPTYMYEFQYRPSFSSDMKPKTVIGDHGDELFSVFGAPFLKEGASEEEIRLSKMVMKFWANFARNGNPNGEGLPHWPEYNQKEGYLQIGANTQAAQKLKDKEVAFWTNLFAKKAVEKPPQTEHIEL
Km ([2]; pH 8, 37 °C): 27 µM
kcat ([2]; pH 8, 37 °C): 17 s⁻¹
kcat/Km ([2]; pH 8, 37 °C): 630000 M⁻¹ s⁻¹

B7: unnamed (protein)
chain: MRKAPLLRFTLASLALACSQALAGPSPYSTLIVFGDSLADAGQFPDLVGGTPGARFTNRDADGNFAPVSPMILGGRLGVAPGDLNPSTSVGIQPDGNNWAVGGYTTQQILDSITTTSETVIPPGNPNAGLVLRERPGYLANGLRADPNALYYLTGGGNDFLQGLVNSPADAVAAGARLAASAQALQQGGARYIMVWLLPDLGQTPNFSGTPQQNPLSLLSAAFNQSLISQLGQIDAQIIPLNIPLLLSEALASPSQFGLASDQNLVGTCYSGDSCVENPVYGINGTTPDPTKLLFNDSVHPTIAGQQLIADYAYSILAAPWELTLLPEMAHASLRAHQDELRNQWQTPWQAVGQWQAFVASGAQDLDFDGQHSAASGDGRGYNLTVGGSYRLNDAWRLGLAGGANRQKLEAGEQDSDYKLNSYMASAFAQYRQDRWWADAALTAGHLDYSDLKRTFALGVNDRSEKGDTDGEAWAMSGRLGYNLAADTSNWQLAPFISADYARVKVDGYDEKSGRSTALGFDDQERTSRRLGVGLLGSVQVLPSTRLFAEVAQEHEFEDDEQDVTMHLTSLPANDFTLTGYTPHSDLTRASLGVSHELVAGVHLRGNYNWRKSDELTQQGISVGVSVDF
Km ([2]; pH 7.2): 300 µM

B8: unnamed (protein)
chain: MSEEVSKNLSETLFVKHKQAKETSALTQYMPTSQSLLDEIKEKNGFSWYRNLRRLQWVWQGVDPIEQEQVLARIASSKHSRTDEQWLDTVMGYHSGNWAYEWTRLGMEHQKRAGEMTNEAASEALFSASLCYSIAGYPHLKSDNLAIQAQVLANSAYLEAAKKSKYIIKQLEIPFEKGKITAHLHLTNTDKPHPVVIVSAGLDSLQTDMWRLFRDHLAKHDIAMLTVDMPSVGYSSKYPLTEDYSRLHQAVLNELFSIPYVDHHRVGLIGFRFGGNAMVRLSFLEQEKIKACVILGAPIHDIFASPQKLQQMPKMYLDVLASRLGKSVVDIYSLSGQMAAWSLKVQGFLSSRKTKVPILAMSLEGDPVSPYSDNQMVAFFSTYGKAKKISSKTITQGYEQSLDLAIKWLEDELLR
Km ([1]; pH 7.5, 25 °C): 18600 µM
kcat ([1]; pH 7.5, 25 °C): 0.67 s⁻¹
kcat/Km ([1]; pH 7.5, 25 °C): 36 M⁻¹ s⁻¹

B9: unnamed (protein)
chain: MTVTDIILIHGALNRGACYDAVVPLLEARGYRVHAPDLTGHTPGDGGHLSVVDMEHYTRPVADILARAEGQSILLGHSLGGASISWLAQHHPDKVAGLIYLTAVLTAPGITPETFVLPGEPNRGTPHALDLIQPVDEGRGLQADFSRLERLREVFMGDYPGEGMPPAEQFIQTQSTVPFGTPNPMEGRALEIPRLYIEALDDVVIPIAVQRQMQKEFPGPVAVVSLPASHAPYYSMPERLAEAIADFADAPAEYRQTATKAGPDRPAGADGGRADRADLP
Km ([1]; pH 7.5, 37 °C): 124 µM
kcat ([1]; pH 7.5, 37 °C): 183 s⁻¹
kcat/Km ([1]; pH 7.5, 37 °C): 1.48e+06 M⁻¹ s⁻¹

B10: unnamed (protein)
chain: MDGVLWRVRTAALMAALLALAAWALVWASPSVEAQSNPYQRGPNPTRSALTADGPFSVATYTVSRLSVSGFGGGVIYYPTGTSLTFGGIAMSPGYTADASSLAWLGRRLASHGFVVLVINTNSRFDYPDSRASQLSAALNYLRTSSPSAVRARLDANRLAVAGHSMGGGGTLRIAEQNPSLKAAVPLTPWHTDKTFNTSVPVLIVGAEADTVAPVSQHAIPFYQNLPSTTPKVYVELDNASHFAPNSNNAAISVYTISWMKLWVDNDTRYRQFLANVNDPALSDFRTNNRHAQ
Km ([2]; pH 8, 30 °C): 250 µM
kcat ([2]; pH 8, 30 °C): 342 s⁻¹
kcat/Km ([2]; pH 8, 30 °C): 1.37e+06 M⁻¹ s⁻¹
Km ([2]; pH 8, 50 °C): 180 µM
kcat ([2]; pH 8, 50 °C): 196 s⁻¹
kcat/Km ([2]; pH 8, 50 °C): 1.09e+06 M⁻¹ s⁻¹
Km ([2]; pH 8, 70 °C): 190 µM
kcat ([2]; pH 8, 70 °C): 49 s⁻¹
kcat/Km ([2]; pH 8, 70 °C): 258000 M⁻¹ s⁻¹
